± gives the standard deviation of the averaged measurements.
Tested on: ATP
Assay: switch fluorescence ratio, 500 uM ATP over buffer (Cy3 cluster intensity, sum of 5 cycles each) (fold (ratio)); higher = stronger signal-on switching upon ATP binding; sequences stand for … in TCGTCGGCAGCGTCAGATGTGTATAAGAGACAGTTTTTTTTTTTTTTTTTTTTTTTTT…TC
Settings: aptamer strand: ATP DNA aptamer (quencher-CACCTGGGGGAGTATTGCGGAGGAAGG + anchor), 100 nM annealed; ATP concentration: 500 uM
Method in brief: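 Exposure to 500 uM ATP lasted 15 min at 22 °C before imaging, and a selection-buffer image was taken beforehand, for Cy3-labelled switching-strand clusters on a modified Illumina MiSeq flow-cell annealed to 100 nM quencher-labelled ATP aptamer. Five buffer/ATP cycles were run with NaOH stripping and re-annealing between them. The fluorescence ratio per cluster is summed target-cycle over summed buffer-cycle Cy3 intensity, averaged per switch-domain sequence. Clusters outside 100-1000 RFU were excluded.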

Sequence	switch fluorescence ratio
TTTAAAGAAT	1.04 ± 0.079
TTTAAAGCCC	1.01 ± 0.043
TTTAAAGGAT	1 ± 0.024
TTTAAAGGCA	0.991 ± 0.011
TTTAAAGTGA	1 ± 0.032
TTTAAATCGG	0.979 ± 0.04
TTTAACAGTT	1.01 ± 0.051
TTTAACCAAT	1.02 ± 0.064
TTTAACCTTT	1.05 ± 0.051
TTTAACGTTG	0.989 ± 0.04
TTTAACTAGA	1.041 ± 0.0061
TTTAACTGCG	1.02 ± 0.036
TTTAACTTAT	1.03 ± 0.02
TTTAACTTTG	1.011 ± 0.0084
TTTAAGAGAA	1.001 ± 0.0059
TTTAAGAGCG	1.02 ± 0.013
TTTAAGAGGT	0.982 ± 0.023
TTTAAGAGTA	1 ± 0.067
TTTAAGCAGA	1.04 ± 0.041
TTTAAGCCCC	0.9854 ± 0.0082
TTTAAGGCGT	1.03 ± 0.016
TTTAAGGGCG	0.981 ± 0.045
TTTAAGGGGG	1.15 ± 0.28
TTTAAGTAAG	1.02 ± 0.012
TTTAAGTCTA	0.992 ± 0.039

Sequence	switch fluorescence ratio
TTTAAGTGAT	1.01 ± 0.057
TTTAAGTGTC	1.09 ± 0.11
TTTAAGTTTT	1 ± 0.022
TTTAATAGCT	1 ± 0.04
TTTAATATTT	1.04 ± 0.077
TTTAATCCGT	1.01 ± 0.055
TTTAATCTGG	0.968 ± 0.021
TTTAATGA	0.976 ± 0.011
TTTAATGGAA	0.988 ± 0.012
TTTAATGTAT	1.19 ± 0.3
TTTAATGTTG	1.014 ± 0.0082
TTTAATTTGG	0.9816 ± 0.0073
TTTAATTTTC	1.05 ± 0.14
TTTACAACGC	1.05 ± 0.012
TTTACAGGGA	1.027 ± 0.0086
TTTACATTTT	0.998 ± 0.044
TTTACCCCGC	1.63 ± 0.58
TTTACGATGC	1.05 ± 0.0062
TTTACGGAGA	1.03 ± 0.041
TTTACGGCTA	1.06 ± 0.014
TTTACGGGAT	1.06 ± 0.036
TTTACGGTCA	1.04 ± 0.039
TTTACTAGGT	0.959 ± 0.026
TTTACTCGGA	1.033 ± 0.0099
TTTACTTA	1.0157 ± 0.00064

Sequence	switch fluorescence ratio
TTTACTTACG	1.22 ± 0.18
TTTACTTATT	1 ± 0.019
TTTACTTGGG	0.9767 ± 0.0077
TTTACTTTCC	1.56 ± 0.16
TTTAGACGTT	1.02 ± 0.016
TTTAGAGAGA	0.975 ± 0.015
TTTAGATGTG	1 ± 0.014
TTTAGCAGGT	1.05 ± 0.014
TTTAGCCATT	0.992 ± 0.012
TTTAGCTTGT	0.972 ± 0.011
TTTAGGAAGT	1.0072 ± 0.00083
TTTAGGCATT	1.03 ± 0.031
TTTAGGCCGT	1.05 ± 0.066
TTTAGGGGCG	1.03 ± 0.1
TTTAGGGGCT	0.9764 ± 0.0076
TTTAGGGTGT	1.05 ± 0.071
TTTAGGGTTC	1.04 ± 0.1
TTTAGGGTTG	0.988 ± 0.022
TTTAGGTAAC	0.9922 ± 0.0079
TTTAGGTGTA	0.985 ± 0.02
TTTAGGTGTT	1.05 ± 0.074
TTTAGGTTGG	0.994 ± 0.031
TTTAGTTGAT	1.01 ± 0.031
TTTAGTTTTG	1.017 ± 0.005
TTTATAAATT	0.972 ± 0.032

Sequence	switch fluorescence ratio
TTTATAACCA	1.05 ± 0.024
TTTATACAA	1.018 ± 0.0097
TTTATACCAG	1.004 ± 0.0066
TTTATAGCT	1.02 ± 0.027
TTTATAGGCT	1.01 ± 0.047
TTTATATGTC	1.12 ± 0.23
TTTATATTAT	0.993 ± 0.043
TTTATATTTC	0.99 ± 0.046
TTTATCACCT	1.14 ± 0.021
TTTATCACGT	0.975 ± 0.0077
TTTATCATGC	0.987 ± 0.019
TTTATCCAAT	0.984 ± 0.037
TTTATCCGAC	1.15 ± 0.027
TTTATCCGAG	1.04 ± 0.042
TTTATCCGGG	0.99 ± 0.05
TTTATCGCCG	0.974 ± 0.022
TTTATCGGCT	1.06 ± 0.078
TTTATCGGGG	0.988 ± 0.011
TTTATCGGTG	0.995 ± 0.035
TTTATCTATT	1 ± 0.012
TTTATCTTCC	2.41 ± 0.065
TTTATCTTCG	1.04 ± 0.017
TTTATGAAGA	0.985 ± 0.027
TTTATGAATT	1.03 ± 0.019
TTTATGACAT	0.971 ± 0.029

Sequence	switch fluorescence ratio
TTTATGAGCA	0.998 ± 0.035
TTTATGAGGT	0.999 ± 0.02
TTTATGCGGG	1.02 ± 0.048
TTTATGCTTG	0.974 ± 0.044
TTTATGGAGA	0.998 ± 0.015
TTTATGGCAT	1.02 ± 0.027
TTTATGGCCC	1.01 ± 0.064
TTTATGGGGT	1.01 ± 0.028
TTTATGGTGG	1.01 ± 0.013
TTTATGTAGG	0.9887 ± 0.0044
TTTATGTATG	1.02 ± 0.034
TTTATTAATT	1 ± 0.029
TTTATTAGCT	1.02 ± 0.043
TTTATTAGGG	0.975 ± 0.021
TTTATTATTG	0.989 ± 0.035
TTTATTCCTT	1.02 ± 0.018
TTTATTCTAT	1.02 ± 0.011
TTTATTGAGT	0.978 ± 0.048
TTTATTGGAA	0.9858 ± 0.0091
TTTATTGTGG	0.9934 ± 0.0071
TTTATTTATG	1.007 ± 0.0065
TTTATTTATT	0.998 ± 0.021
TTTATTTCCA	0.996 ± 0.03
TTTATTTGCT	0.9809 ± 0.0098
TTTATTTGTT	1 ± 0.021

Sequence	switch fluorescence ratio
TTTATTTTG	0.95563 ± 0.00051
TTTATTTTGG	0.995 ± 0.053
TTTCAAACCT	1.57 ± 0.64
TTTCAAAGAT	1.22 ± 0.41
TTTCAAAGGC	1.17 ± 0.2
TTTCAAATGG	0.975 ± 0.028
TTTCAACTAC	1.25 ± 0.23
TTTCAAGATT	0.998 ± 0.015
TTTCAAGGGA	0.9904 ± 0.0048
TTTCAATTTG	1.04 ± 0.049
TTTCACGCAA	3.98 ± 1.1
TTTCACTTTT	0.991 ± 0.032
TTTCAGAAGG	1.01 ± 0.023
TTTCAGACAG	0.9921 ± 0.0014
TTTCAGCTGG	0.997 ± 0.027
TTTCAGGTAA	0.988 ± 0.017
TTTCAGGTCG	1.02 ± 0.088
TTTCAGGTTG	0.982 ± 0.041
TTTCAGTGGT	0.986 ± 0.024
TTTCAGTGTT	1.05 ± 0.099
TTTCAGTTTC	1.02 ± 0.043
TTTCATACCT	1.23 ± 0.14
TTTCATAGCA	1.283 ± 0.012
TTTCATATGA	1 ± 0.0082
TTTCATCGCC	1.01 ± 0.012

Sequence	switch fluorescence ratio
TTTCATCTTG	0.9706 ± 0.0034
TTTCATGAAT	0.987 ± 0.0027
TTTCATGGTG	1.0484 ± 0.00021
TTTCATGTTA	0.987 ± 0.0084
TTTCATTAGT	0.99 ± 0.045
TTTCATTATT	1.02 ± 0.02
TTTCATTCTT	1 ± 0.033
TTTCATTGGC	0.986 ± 0.028
TTTCATTTGT	1.02 ± 0.075
TTTCCAATCT	1.08 ± 0.13
TTTCCATATT	0.984 ± 0.019
TTTCCCATTT	1 ± 0.064
TTTCCCGGGT	1.0123 ± 0.00051
TTTCCCTCGT	1.16 ± 0.17
TTTCCGACGT	1.46 ± 0.62
TTTCCGGGTG	2.5 ± 1.1
TTTCCGTGAG	1.63 ± 0.98
TTTCCTAGTT	1.032 ± 0.0028
TTTCCTGTGT	1.01 ± 0.017
TTTCCTTTGT	1.01 ± 0.049
TTTCCTTTT	1.014 ± 0.0083
TTTCGAACAT	1.03 ± 0.068
TTTCGACCGA	1.03 ± 0.033
TTTCGACCTG	0.9871 ± 0.0046
TTTCGACGCT	2.18 ± 0.85

Sequence	switch fluorescence ratio
TTTCGAGAAC	0.9873 ± 0.0066
TTTCGAGGAT	1.006 ± 0.0044
TTTCGAGGGA	1 ± 0.025
TTTCGATTAC	1.07 ± 0.018
TTTCGATTGC	1.004 ± 0.01
TTTCGATTTG	1.02 ± 0.012
TTTCGCAGAA	1.1 ± 0.1
TTTCGCCATG	0.995 ± 0.026
TTTCGCGACA	1.34 ± 0.5
TTTCGCGGGT	1.05 ± 0.067
TTTCGCTATG	1.04 ± 0.024
TTTCGCTCGC	1.13 ± 0.02
TTTCGCTCTT	1.12 ± 0.25
TTTCGGAAGC	1.005 ± 0.0015
TTTCGGACAA	1.46 ± 0.5
TTTCGGGCGC	1.05 ± 0.047
TTTCGTAAGA	0.995 ± 0.016
TTTCGTAGAG	1 ± 0.011
TTTCGTAGGT	1.02 ± 0.022
TTTCGTCGGC	1.048 ± 0.0018
TTTCGTGACT	1.02 ± 0.035
TTTCGTGGAC	1.08 ± 0.015
TTTCGTGGTG	0.997 ± 0.031
TTTCGTTTAC	1.272 ± 0.0071
TTTCGTTTGG	0.981 ± 0.042

— the supplement of paper PMC10126150
